Results taken from publication doi:10.1101/2023.08.14.552755.

Tests used:
[1] = biological target: VpOmpM1 (OmpM1 from Veillonella parvula), full length, expressed in E. coli (Veillonella parvula); assay: cryo-EM structure
[2] = biological target: VpOmpM1 stalk region (residues 22-107), soluble construct (Veillonella parvula); assay: crystal structure

| stoichiometry N [1] | stoichiometry N [2] | Substance |
| --- | --- | --- |
| 3 |  | VpOmpM1 (OmpM1 from Veillonella parvula), full length, expressed in E. coli (natural protein) |
|  | 3 | VpOmpM1 stalk region (residues 22-107), soluble construct (domain or fragment) |
